Molecular target: LDL receptor (UniProt P01130)
Test: cell-based or functional assay

Sequence of LDL receptor (P01130 22-860 limits assumed): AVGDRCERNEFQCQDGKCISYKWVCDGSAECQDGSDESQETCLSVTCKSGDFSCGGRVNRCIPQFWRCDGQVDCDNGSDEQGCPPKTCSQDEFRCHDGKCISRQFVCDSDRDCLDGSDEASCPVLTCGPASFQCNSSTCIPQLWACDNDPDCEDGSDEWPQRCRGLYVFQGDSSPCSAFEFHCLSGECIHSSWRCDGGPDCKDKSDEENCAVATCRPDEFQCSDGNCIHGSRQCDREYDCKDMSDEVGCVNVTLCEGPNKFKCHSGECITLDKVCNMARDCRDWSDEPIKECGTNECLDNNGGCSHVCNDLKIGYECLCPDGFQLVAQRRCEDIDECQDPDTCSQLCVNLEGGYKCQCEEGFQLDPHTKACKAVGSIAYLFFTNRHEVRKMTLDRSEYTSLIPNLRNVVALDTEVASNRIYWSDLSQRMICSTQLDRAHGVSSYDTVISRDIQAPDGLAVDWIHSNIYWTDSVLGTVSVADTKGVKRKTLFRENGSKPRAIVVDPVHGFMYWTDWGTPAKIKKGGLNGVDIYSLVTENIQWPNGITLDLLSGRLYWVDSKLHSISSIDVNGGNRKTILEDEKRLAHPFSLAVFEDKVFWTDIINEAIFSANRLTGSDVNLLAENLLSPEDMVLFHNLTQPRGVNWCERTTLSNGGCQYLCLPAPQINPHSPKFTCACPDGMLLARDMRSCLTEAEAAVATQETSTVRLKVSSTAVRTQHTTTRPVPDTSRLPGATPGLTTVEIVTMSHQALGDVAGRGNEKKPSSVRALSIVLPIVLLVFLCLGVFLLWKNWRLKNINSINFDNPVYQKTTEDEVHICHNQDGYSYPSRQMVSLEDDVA

## distearyl-glycyl-apoE-3^129-169(Q142) (peptide)
  expression (transfection of 293 epithelial cells with peptide:DNA complexes), relative to wild-type apoE peptide complexes (% of wild-type apoE peptide complexes): 5

— patent US6344436
